The source of these data is the supplement of paper PMC12042874.

± gives the uncertainty stated by the source.

The nature of this series: amyloid nucleation score (Sup35N fusion, yeast selection) (log enrichment); library NNK2; higher = more nucleation; inactive = no reads after selection. Put shortly:
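For the nucleation score, DiMSum gave the log enrichment of output over input reads, centred on the mode score of non-aggregating sequences. Psi-negative yeast expressing Sup35N fused to peptides of 20 random codons were induced with 100 μM copper sulfate for 24 hours and grown 7 days at 30°C on medium lacking adenine and uracil. Input and output plasmid inserts were Illumina-sequenced, and sequences with under 100 input reads were excluded.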
For the substance TYVSKIWMKRCESDILRKVI, the amyloid nucleation score result was “inactive”.
As for TYYFVVQFI, the figure is 8.284 ± 0.036; as for VAFIFRSSWKSIPKTPKMYS, “inactive”.
Next, VAKLLMAGVVKPCRGGRCVG: 0.936 ± 0.16.
As for VAPTLYLVCRIIRPNPNSYY, the figure is -0.228 ± 0.53.
In turn, VARHIHLTRSRNNFSSGRKA displayed an amyloid nucleation score of 0.958 ± 0.4.
As for VASRFDSSYMCKMAFI, the figure is -0.651 ± 0.54.
Next, VATGLRAWWWTGKEEVGLVS: 1.69 ± 0.24.
Next, VAYYEDVLSSYFIERW: -0.392 ± 0.29; VCDFNVLDGCGNPGLL: -0.67 ± 1.1.
Regarding VCFLQFYLSIFTTHTVSTYK, the amyloid nucleation score was -0.547 ± 0.76.
Regarding VCNFSTLELVVEDGSKAYRG, the amyloid nucleation score is -0.079 ± 0.3.
Substance VCQRPEMVLNSIETLQPRWS registered an amyloid nucleation score of 0.211 ± 0.21.
Next, VCRHFVRVKDQMDRTFNDKQ: 0.18 ± 0.28; VCVLKGDGGL: 0.339 ± 0.55.
For the substance VCWYG, the amyloid nucleation score amounted to 0.034 ± 0.3.
Next, VCYYMWWFVYKHRSWQSGSW: -0.639 ± 0.74; VDAVLND: 0.432 ± 0.29.
Next, VDEQSLNR: 0.62 ± 0.41; VDILGMGRNHM: -1.04 ± 0.78.
As for VDLGLLKKTNFTQLYFGDC, the figure is 0.317 ± 0.16; as for VDLRQCENLHRPWRFRRSGK, 1.4 ± 0.2.
Substance VDRDSPKYVHA had an amyloid nucleation score of 0.917 ± 0.32.
Next, VDRNVTSRSQVTSSFSWDIV: “inactive”; VDSRGFHYDL: “inactive”; VDVLLFRDYLNYSNLITHKV: -1.21 ± 0.54.
In turn, VDYLRYLIWFNRS gave an amyloid nucleation score of 0.058 ± 0.79.
As for VEFSLSCHNMIFYVLD, the figure is 6.762 ± 0.028; as for VEMAFRFQRSKSCLSLDDFV, “inactive”; as for VENLRNTIPKKEIGFSSVTG, -0.105 ± 0.3.
Turning to VERFLPVCFIPLISKRWTMY, the amyloid nucleation score was found to be 0.283 ± 0.54.
Next, VERIKLFASAHYS: -0.203 ± 0.35; VERLYDAYQIF: 0.316 ± 0.4.
As for VESIKGVSCLYMFSYVMLLQ, the figure is -0.021 ± 0.37; as for VFCINAFRALQTYCCWMYF, 1.91 ± 0.087; as for VFDGRYVESILSFF, 3.96 ± 0.1.
As for VFELFAMCSVSKCCGVSSVT, the figure is 1.46 ± 0.4; as for VFFGVQNKR, 3.04 ± 0.095.
As to VFFGVSNVVSATYSYWLRIQ, the amyloid nucleation score is -0.627 ± 0.76.
As for VFGACGTM, the figure is 0.606 ± 0.32; as for VFILSEYVTNAVK, -0.165 ± 0.54.
As for VFILWFTVSATIKKESFGNN, the figure is -2.34 ± 1.1; as for VFMTSLY, -1.06 ± 0.49.
As for VFNWVRISPR, the figure is 8.81 ± 0.07; as for VFPDSIGN, “inactive”; as for VFQSDECVFLCSN, -0.561 ± 0.55.
Take VFSNDASDNTRGRWLGYGFF: the amyloid nucleation score entry is “inactive”.
VFSYRLLSNPLSVPW had an amyloid nucleation score of 4.83 ± 0.089.
For the substance VFTFVKERQSTWVVSFPQFL, the amyloid nucleation score came to 4.68 ± 0.066.
As for VFVIWCFVIICVSLLSVVDR, the figure is -0.795 ± 0.49; as for VFYLSFIFLLWLSGKYLGHW, 1.25 ± 0.1; as for VGAMSIMKVLNFHDDILTVT, “inactive”.
Next, VGDRSFVMFSIFESAGSCCT: 1.03 ± 0.25; VGDSMMWVTDRAKGVPYGGD: 0.285 ± 0.65.
As to VGEKCDL, the amyloid nucleation score was -0.023 ± 0.55.
VGFISTMWHMYSELLGQINV had an amyloid nucleation score of -0.499 ± 0.76.
As for VGIYMIWLISSS, the entry is “inactive”.
